Measurements: patent US20180298070A1, “PEPTIDE COMPOUND” (Takeda Pharmaceutical Company Limited, published 2018)
Non-standard residues stand in square brackets, D forms with d. Groups on a side chain read outwards from the residue. Primed or numbered codes have the meaning given here. No end group written: not given here. *: point of attachment. NMeY = CN[C@@H](Cc1ccc(O)cc1)C(=O)O; αMeF = C[C@](N)(Cc1ccccc1)C(=O)O; Myristoyl = CCCCCCCCCCCCCC(=O)*; Undecanoyl = CCCCCCCCCCC(=O)*; Lauroyl = CCCCCCCCCCCC(=O)*; Decanoyl = CCCCCCCCCC(=O)*; dIva = CC[C@@](C)(N)C(=O)O; Iva = CC[C@](C)(N)C(=O)O; PEG2′ = not defined here; PEG4′ = not defined here; Hexanoyl = CCCCCC(=O)*; Aib = CC(C)(N)C(=O)O

T1: human GIPR (human), P48546
T1 chain: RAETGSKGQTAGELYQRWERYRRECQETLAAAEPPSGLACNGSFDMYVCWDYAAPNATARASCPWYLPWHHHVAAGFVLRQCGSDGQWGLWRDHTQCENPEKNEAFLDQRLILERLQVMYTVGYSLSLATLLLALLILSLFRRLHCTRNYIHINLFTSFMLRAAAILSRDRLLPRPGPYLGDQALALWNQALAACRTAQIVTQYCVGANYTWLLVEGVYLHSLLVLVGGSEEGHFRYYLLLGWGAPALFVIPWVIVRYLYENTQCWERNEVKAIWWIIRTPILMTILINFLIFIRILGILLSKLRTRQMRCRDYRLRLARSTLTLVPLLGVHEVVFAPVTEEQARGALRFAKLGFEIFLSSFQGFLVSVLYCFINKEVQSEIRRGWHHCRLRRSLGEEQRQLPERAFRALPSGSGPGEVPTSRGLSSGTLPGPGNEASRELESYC

T2: human GLP-1R (human), P43220
T2 chain: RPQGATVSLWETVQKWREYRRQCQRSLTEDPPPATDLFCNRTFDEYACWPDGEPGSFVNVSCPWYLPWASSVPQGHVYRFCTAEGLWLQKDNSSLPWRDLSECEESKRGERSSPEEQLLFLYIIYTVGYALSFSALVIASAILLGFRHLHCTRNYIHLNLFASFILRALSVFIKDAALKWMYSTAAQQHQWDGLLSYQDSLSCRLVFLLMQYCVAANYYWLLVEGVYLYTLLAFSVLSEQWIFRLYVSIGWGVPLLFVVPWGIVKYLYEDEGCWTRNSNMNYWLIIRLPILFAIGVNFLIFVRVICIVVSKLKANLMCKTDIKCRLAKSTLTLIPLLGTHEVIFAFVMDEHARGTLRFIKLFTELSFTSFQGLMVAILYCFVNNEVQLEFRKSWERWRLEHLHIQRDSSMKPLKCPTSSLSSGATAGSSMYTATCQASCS


What was measured:
[1] = molecular target: T1, human GIPR (human), P48546
[2] = molecular target: T2, human GLP-1R (human), P43220

Row | Binder | Agonist activity (EC50, M) [1] [M] | Agonist activity (EC50, M) [2] [M]
1 | Y[Aib]EGTFISDYSK([PEG(2)-Pal])ALDRIHQQDFVNWLLAQRPSSGAPPPS (ends and bridges not checked) [Compound 172] | 2e-12 | > 1e-06
2 | Y[Aib]EGTFISDYSK([PEG2′-Lauroyl])ALDRIAQQDFVNWLLAQRPSSGAPPPSR (ends and bridges not checked) [Compound 184] | 3.6e-12 | 3e-08
3 | Me-Y[Aib]EGTFISDYSI[dIva]LDRIHQ[Aib]NFVNW[Iva]LAQRPSSGAPPPSR (not fully specified (residue 1, C-terminus); ends and bridges not checked) [Compound 147] | 1.5e-12 | > 1e-06
4 | Y[Aib]EGTFISDYSK([PEG2′-Undecanoyl])ALDRIAQQDFVNWLLAQRPSSGAPPPSR (ends and bridges not checked) [Compound 183] | 3.4e-12 | 3.3e-08
5 | Y[Aib]EGTFISDYSK([PEG2′-Lauroyl])ALDR[Aib]AQ[Aib]NFVNW[Iva]LAQRPSSGAPPPS (not fully specified (C-terminus); ends and bridges not checked) [Compound 211] | 3.4e-12 | 2.6e-08
6 | Y[Aib]EGTVVSLYSI[Aib]LDKQAQ[Aib]EFVKWLLKGK([PEG(2)-Pal]) (ends and bridges not checked) [Compound 162] | 2.7e-10 | > 1e-06
7 | [NMeY][Aib]EGTFISDYSIALDRIHQ[Aib]NFVNWLLAQRPSSGAPPPSR (not fully specified (N-terminus, C-terminus); ends and bridges not checked) [Compound 142] | 2.3e-12 | > 1e-06
8 | Me-Y[Aib]EGTFISDYSIALDRIAQ[Aib]D[αMeF]VNWLLAQRPSSGAPPPSR (not fully specified (residue 1, C-terminus); ends and bridges not checked) [Compound 135] | 1.8e-12 | > 1e-06
9 | Ac-Y[Aib]EGTFISDYSIALDRIAQ[Aib]S[αMeF]VNW[Iva]LAQRPSSGAPPPSR (ends and bridges not checked) [Compound 155] | 1.7e-12 | > 1e-06
10 | Y[Aib]EGTFISDYSK([PEG2′-Decanoyl])ALDRIAQQDFVNWLLAQRPSSGAPPPSR (ends and bridges not checked) [Compound 182] | 3.3e-12 | 4.8e-08
11 | [NMeY][Aib]EGTFISDYSIALDRIHQQD[αMeF]VNWLLAQRPSSGAPPPSR (not fully specified (N-terminus, C-terminus); ends and bridges not checked) [Compound 141] | 1.9e-12 | > 1e-06
12 | Y[Aib]EGTFISDYSK([PEG(2)-Lauroyl])ALDRIHQQDFVNWLLAQRPSSGAPPPS (ends and bridges not checked) [Compound 175] | 3.5e-12 | > 1e-06
13 | Y[Aib]EGTFISDYSK([PEG4′-Lauroyl])ALDRIAQQDFVNWLLAQRPSSGAPPPSR (ends and bridges not checked) [Compound 189] | 6.8e-12 | 2.7e-08
14 | Y[Aib]EGTFISDYSK([PEG(2)-Lauroyl])ALDRIHQQD[αMeF]VNWLLAQRPSSGAPPPS (ends and bridges not checked) [Compound 208] | 6.1e-12 | > 1e-06
15 | Y[Aib]EGTFISDYSK([PEG(4)-Pal])ALDRIAQQDFVNWLLAQRPSSGAPPPSR (ends and bridges not checked) [Compound 190] | 2.1e-11 | > 1e-06
16 | [NMeY][Aib]EGTFISDYSI[dIva]LDRIAQQSFVNWLLAQRPSSGAPPPSR (not fully specified (N-terminus, C-terminus); ends and bridges not checked) [Compound 138] | 2.2e-12 | > 1e-06
17 | Y[Aib]EGTFISDYSK([PEG(2)-Lauroyl])ALDRIAQQDFVNWLLAQRPSSGAPPPS (ends and bridges not checked) [Compound 192] | 6.5e-12 | 1.5e-08
18 | [NMeY][Aib]EGTFISDYSI[dIva]LDRIHQQDFVNWLLAQRPSSGAPPPSR (not fully specified (N-terminus, C-terminus); ends and bridges not checked) [Compound 144] | 2.2e-12 | > 1e-06
19 | Y[Aib]EGTFISDYSK([PEG2′-Lauroyl])ALDR[Aib]AQQD[αMeF]VNWLLAQRPSSGAPPPS (not fully specified (C-terminus); ends and bridges not checked) [Compound 213] | 3.1e-12 | 5.4e-08
20 | Y[Aib]EGTFISDYSK([PEG(2)-Lauroyl])[dIva]LDRIAQQDFVNWLLAQRPSSGAPPPS (ends and bridges not checked) [Compound 206] | 2.1e-11 | > 1e-06
21 | Y[Aib]EGTFISDYSK([PEG(2)-Lauroyl])ALDRIHQ[Aib]NFVNWLLAQRPSSGAPPPS (ends and bridges not checked) [Compound 209] | 4.3e-12 | > 1e-06
22 | Y[Aib]EGTFISDYSK([PEG(2)-Lauroyl])ALDR[Aib]AQQDFVNWLLAQRPSSGAPPPSR (ends and bridges not checked) [Compound 198] | 4.5e-12 | 2.8e-08
23 | Y[Aib]EGTFISDYSK([PEG(2)-Lauroyl])ALDRIAQQD[αMeF]VNWLLAQRPSSGAPPPS (ends and bridges not checked) [Compound 202] | 4.6e-12 | 1.8e-07
24 | Y[Aib]EGTFISDYSK([PEG2′-Lauroyl])ALDRIHQ[Aib]N[αMeF]VNW[Iva]LAQRPSSGAPPPS (not fully specified (C-terminus); ends and bridges not checked) [Compound 216] | 4.8e-12 | 1.5e-07
25 | Y[Aib]EGTFISDYSK([PEG2′-Myristoyl])ALDRIAQQDFVNWLLAQRPSSGAPPPSR (ends and bridges not checked) [Compound 186] | 6.4e-12 | 1.3e-08
26 | Y[Aib]EGTFISDYSK([PEG(2)-Hexanoyl])ALDRIHQQDFVNWLLAQRPSSGAPPPS (ends and bridges not checked) [Compound 174] | 4.2e-12 | > 1e-06
27 | Me-Y[Aib]EGTFISDYSIALDRIAQQNFVNW[Iva]LAQRPSSGAPPPSR (not fully specified (residue 1, C-terminus); ends and bridges not checked) [Compound 133] | 1.7e-12 | > 1e-06
28 | Ac-Y[Aib]EGTFISDYSIALDR[Aib]HQ[Aib]NFVNW[Iva]LAQRPSSGAPPPSR (ends and bridges not checked) [Compound 156] | 4.8e-12 | > 1e-06
